{"source": "paper PMC10987521", "about": "“An all-in-one tetrazine reagent for cysteine-selective labeling and bioorthogonal activable prodrug construction” (Nature Communications, 2024)", "key": {"[1]": {"system": "LX2 cells", "test": "Cell uptake by fluorescence imaging, LX2", "type": "cell-based, Human", "details": "αvβ3-negative, 10 μM, 2 h"}, "[2]": {"system": "B16F10 cells", "test": "Cell uptake by fluorescence imaging, B16F10", "type": "cell-based, Mouse", "details": "B16F10 pre-treated with 50-fold excess of unmodified RGD, 10 μM, 2 h", "experimental": "(§1) B16F10 cells were cultured for 48 h. […]\n(§2) 12.1 Calculation of the fluorescence coefficient (F c)\n(§3) The Fc was the radio calculated\n(§4) 12.2 Uptake calculation of the B16F10 cells […]\n(§5) deviation were analyzed using Origin Pro 2015.\n(§6) B16F10 cells, characterized by α vβ3\n(§7) Following the incubation period, the\nSubsequently, the cells were trypsinized and underwent three PBS rinses.\n12 .4 Cell uptake analysis by fluorescence imaging"}, "[3]": {"system": "B16F10 cells", "test": "Cellular uptake of RGD-Dox over various time intervals using flow cytometry", "type": "cell-based, Mouse"}, "[4]": {"test": "Nano-structure characterization of peptide conjugates (Tyndall effect, DLS, zeta potential, TEM)", "type": "physicochemical", "details": "50 μM in H2O (2% DMSO), sonicated 10 min; mean of 3 measurements", "experimental": "The second-order rate constant for the labeling reactions between tetrazine 1 and Cys was determined at 25 °C in PB (30% MeCN, 20 mM, pH 8.0) under second-order conditions using a 6000+ (Quawell) UV-Vis spectrophotometer. The concentrations of cysteine and tetrazine were identical. The specific difference in absorption wavelength (300 nm) between 1 and Cys-1 was measured over time. The second-order rate constant k2 was calculated from the slope of a plot of (1/c – 1/c0) versus time.\n5. Competitive labeling reaction with other nucleophilic amino acids\nFor the competitive labeling experiment, 10 equiv. (2 mM) of N-Fmoc-Lys, N-Fmoc-Arg, Ser, Tyr, and 1.3 equiv. […] The resulting solution was maintained at 25 °C and monitored by LC –MS. […]\nEach voTz analogue (1.1 equiv.) was added to a 0.25 mL vial containing solvent. […] The chromatogram peak areas of all relevant Cys -containing species were integrated, and the yiel d was determined using the following equation: Yield (%) = Iproduct/(Istarting + Iproduct + Ioxidation + Iside product) × 100, where Istarting, Iproduct, Ioxidation, and Iside product respectively represent the average ion counts of remaining starting material, product, oxidized starting material and any side product, if present 2. […]\nDLS analyses and particle zeta potential values were determined using a Nano ZS ZEN 3690 instrument (Malvern […]"}, "[5]": {"test": "Stability in FBS (serum)", "type": "in vitro ADME", "details": "for remaining at 1 h, 50 μM / remaining at 2 h, 50 μM / remaining at 3 h, 50 μM / RGD-Dox (%): stability in the FBS; for remaining at 1 h, 50 μM / remaining at 2 h, 50 μM / remaining at 3 h, 50 μM: read-out: RGD-Dox (%)", "experimental": "The results are shown as the mean ± SD. Source data are provided as a Source Data file. […]\nSupplementary Fig. 48. Stability of RGD-Dox in the 50% FBS. RGD-Dox was diluted to a concentration of 50 μM\nusing 50% FBS/PBS (10% DMSO). The mixture was homogenized and incubated at 37 °C. The stability of RGD-Dox\nwas assessed by measuring the decrease in peak area at 520 nm (with the initial peak area at 0 min defined as 100%).\nThis measurement was monitored by HPLC–MS. Independent measurements were taken three times. The results are\nshown as the mean ± SD. Source data are provided as a Source Data file. […]\nSource data are provided as a Source Data file."}, "[6]": {"system": "B16F10 cells", "test": "Comparison of cell uptake between RGD-Dox and Dox using flow cytometry", "type": "cell-based, Mouse", "experimental": "as §1, §2, §3, §4, §5, §6, §7\nSubsequently, the cells were trypsinized and underwent three PBS rinses. […]"}}, "note": "Like-named read-outs stand apart in the source and are kept apart here."}
{"smiles": "COc1cccc2c1C(=O)c1c(O)c3c(c(O)c1C2=O)C[C@@](O)(C(=O)CO)C[C@@H]3O[C@H]1C[C@H](NC(=O)OCc2nnc(CCSC[C@@H]3NC(=O)[C@@H](Cc4ccc(O)cc4)NC(=O)[C@H](CC(=O)O)NC(=O)CNC(=O)[C@H](CCCNC(=N)N)NC3=O)nn2)[C@H](O)[C@H](C)O1", "note": "[RGD-Dox]", "values": [{"measurement": "cellular fluorescence (uptake) in LX2 cells", "setting": "[1]", "value": "negligible fluorescence"}, {"measurement": "cellular fluorescence (uptake) after blocking with unmodified RGD", "setting": "[2]", "value": "negligible fluorescence"}, {"measurement": "cellular uptake of RGD-Dox (flow cytometry)", "setting": "[3]; 0.5 h, Data 2", "value": 4811}, {"measurement": "cellular uptake of RGD-Dox (flow cytometry)", "setting": "[3]; 1 h, Data 1", "value": 7075}, {"measurement": "cellular uptake of RGD-Dox (flow cytometry)", "setting": "[3]; 1 h, Data 2", "value": 6214}, {"measurement": "cellular uptake of RGD-Dox (flow cytometry)", "setting": "[3]; 2 h, Data 2", "value": 11247}, {"measurement": "cellular uptake of RGD-Dox (flow cytometry)", "setting": "[3]; 2 h, Data 3", "value": 9887}, {"measurement": "cellular uptake of RGD-Dox (flow cytometry)", "setting": "[3]; 3 h, Data 1", "value": 12006}, {"measurement": "cellular uptake of RGD-Dox (flow cytometry)", "setting": "[3]; 3 h, Data 2", "value": 12578}, {"measurement": "cellular uptake of RGD-Dox (flow cytometry)", "setting": "[3]; 4 h, Data 2", "value": 13144}, {"measurement": "average particle diameter (DLS)", "setting": "[4]", "value": 168, "unit": "nm"}, {"measurement": "remaining at 5 h, 50 μM", "setting": "[5]; bovine, serum, 5 h, 37 °C, 50 μM in 50% FBS/PBS (10% DMSO), HPLC–MS peak area 520 nm, n = 3, read-out: intact in serum", "value": 80, "unit": "%"}, {"measurement": "remaining at 1 h, 50 μM", "setting": "[5]; bovine, serum, Data 1", "value": 97, "unit": "%"}, {"measurement": "remaining at 1 h, 50 μM", "setting": "[5]; bovine, serum, Data 3", "value": 93, "unit": "%"}, {"measurement": "remaining at 2 h, 50 μM", "setting": "[5]; bovine, serum, Data 1", "value": 88, "unit": "%"}, {"measurement": "remaining at 2 h, 50 μM", "setting": "[5]; bovine, serum, Data 3", "value": 89, "unit": "%"}, {"measurement": "remaining at 3 h, 50 μM", "setting": "[5]; bovine, serum, Data 1", "value": 86, "unit": "%"}, {"measurement": "remaining at 3 h, 50 μM", "setting": "[5]; bovine, serum, Data 2", "value": 82, "unit": "%"}, {"measurement": "remaining at 3 h, 50 μM", "setting": "[5]; bovine, serum, Data 3", "value": 84, "unit": "%"}, {"measurement": "RGD-Dox (%)", "setting": "[5]; 0 h, Data 2", "value": 100, "unit": "%"}, {"measurement": "RGD-Dox (%)", "setting": "[5]; 0 h, Data 3", "value": 100, "unit": "%"}, {"measurement": "RGD-Dox (%)", "setting": "[5]; 5 h, Data 1", "value": 80, "unit": "%"}, {"measurement": "RGD-Dox (%)", "setting": "[5]; 5 h, Data 2", "value": 77, "unit": "%"}, {"measurement": "RGD-Dox (%)", "setting": "[5]; 5 h, Data 3", "value": 81, "unit": "%"}, {"measurement": "Normalized uptake", "setting": "[6]; normalized to Dox = 1, Data 1", "value": 22.44}, {"measurement": "Normalized uptake", "setting": "[6]; normalized to Dox = 1, Data 2", "value": 22.03}, {"measurement": "Normalized uptake", "setting": "[6]; normalized to Dox = 1, Data 3", "value": 17.85}]}
